# Assay results taken from the supplement of paper PMC5998384.
# Legend:
# [1] = system: HeLa Kyoto; experiment: solubility in G1/S (NP-40 vs SDS abundance) (log2 ratio); higher = more soluble; conditions: cell cycle stage: G1/S
# [2] = system: HeLa Kyoto; experiment: solubility change mitosis vs G1/S (difference of NP-40 vs SDS log2 ratios) (log2 ratio difference); higher = more soluble in mitosis
# [3] = system: HeLa Kyoto; experiment: melting temperature (median over replicates), in situ; higher = more thermally stable
# [4] = system: HeLa Kyoto; experiment: thermal stability score vs G1/S (z-score of summed log2 fold changes over temperatures); higher = more thermally stable than in G1/S
# [5] = cell cycle stage: early G1 (4.5 h after nocodazole release)
# 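For melting temperature (median over replicates), in situ in this document: HeLa Kyoto cells synchronized by double thymidine or nocodazole block, proteins quantified by TMT10plex mass spectrometry, three independent biological replicates.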
# 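For solubility change mitosis vs G1/S (difference of NP-40 vs SDS log2 ratios) in this document: synchronized HeLa Kyoto cells (double thymidine block for G1/S, nocodazole release for mitosis), protein amounts in NP-40 versus SDS lysates quantified by mass spectrometry, three biological replicates.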
# 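For solubility in G1/S (NP-40 vs SDS abundance) in this document: HeLa Kyoto cells arrested at G1/S by double thymidine block, proteins quantified by TMT10plex mass spectrometry in mild NP-40 versus SDS extracts, three biological replicates.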
# 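For thermal stability score vs G1/S (z-score of summed log2 fold changes over temperatures) in this document: synchronized HeLa Kyoto cells, proteins quantified by TMT10plex mass spectrometry, three biological replicates, mitosis taken 0.5 h after nocodazole release, G1/S directly after double thymidine block.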
Substance,solubility in G1/S (log2) [1],solubility change mitosis (log2) [2],melting temperature ([3]; cell cycle stage: G1/S),melting temperature ([3]; cell cycle stage: mitosis),"thermal stability score [4, 5]",thermal stability score ([4]; cell cycle stage: mitosis)
MRPVRLMKVFVTRRIPAEGRVALARAADCEVEQWDSDEPIPAKELERGVAGAHGLLCLLSDHVDKRILDAAGANLKVISTMSVGIDHLALDEIKKRGIRVGYTPDVLTDTTAELAVSLLLTTCRRLPEAIEEVKNGGWTSWKPLWLCGYGLTQSTVGIIGLGRIGQAIARRLKPFGVQRFLYTGRQPRPEEAAEFQAEFVSTPELAAQSDFIVVACSLTPATEGLCNKDFFQKMKETAVFINISRGDVVNQDDLYQALASGKIAAAGLDVTSPEPLPTNHPLLTLKNCVILPHIGSATHRTRNTMSLLAANNLLAGLRGEPMPSELKL [GRHPR],0.0329,-0.204,54.3 °C,55 °C,0.108,0.371
MEAADASRSNGSSPEARDARSPSGPSGSLENGTKADGKDAKTTNGHGGEAAEGKSLGSALKPGEGRSALFAGNEWRRPIIQFVESGDDKNSNYFSMDSMEGKRSPYAGLQLGAAKKPPVTFAEKGELRKSIFSESRKPTVSIMEPGETRRNSYPRADTGLFSRSKSGSEEVLCDSCIGNKQKAVKSCLVCQASFCELHLKPHLEGAAFRDHQLLEPIRDFEARKCPVHGKTMELFCQTDQTCICYLCMFQEHKNHSTVTVEEAKAEKETELSLQKEQLQLKIIEIEDEAEKWQKEKDRIKSFTTNEKAILEQNFRDLVRDLEKQKEEVRAALEQREQDAVDQVKVIMDALDERAKVLHEDKQTREQLHSISDSVLFLQEFGALMSNYSLPPPLPTYHVLLEGEGLGQSLGNFKDDLLNVCMRHVEKMCKADLSRNFIERNHMENGGDHRYVNNYTNSFGGEWSAPDTMKRYSMYLTPKGGVRTSYQPSSPGRFTKETTQKNFNNLYGTKGNYTSRVWEYSSSIQNSDNDLPVVQGSSSFSLKGYPSLMRSQSPKAQPQTWKSGKQTMLSHYRPFYVNKGNGIGSNEAP [TRIM29],-0.308,0.303,50.6 °C,50.9 °C,-0.827,-1.46
MNPRQGYSLSGYYTHPFQGYEHRQLRYQQPGPGSSPSSFLLKQIEFLKGQLPEAPVIGKQTPSLPPSLPGLRPRFPVLLASSTRGRQVDIRGVPRGVHLRSQGLQRGFQHPSPRGRSLPQRGVDCLSSHFQELSIYQDQEQRILKFLEELGEGKATTAHDLSGKLGTPKKEINRVLYSLAKKGKLQKEAGTPPLWKIAVSTQAWNQHSGVVRPDGHSQGAPNSDPSLEPEDRNSTSVSEDLLEPFIAVSAQAWNQHSGVVRPDSHSQGSPNSDPGLEPEDSNSTSALEDPLEFLDMAEIKEKICDYLFNVSDSSALNLAKNIGLTKARDINAVLIDMERQGDVYRQGTTPPIWHLTDKKRERMQIKRNTNSVPETAPAAIPETKRNAEFLTCNIPTSNASNNMVTTEKVENGQEPVIKLENRQEARPEPARLKPPVHYNGPSKAGYVDFENGQWATDDIPDDLNSIRAAPGEFRAIMEMPSFYSHGLPRCSPYKKLTECQLKNPISGLLEYAQFASQTCEFNMIEQSGPPHEPRFKFQVVINGREFPPAEAGSKKVAKQDAAMKAMTILLEEAKAKDSGKSEESSHYSTEKESEKTAESQTPTPSATSFFSGKSPVTTLLECMHKLGNSCEFRLLSKEGPAHEPKFQYCVAVGAQTFPSVSAPSKKVAKQMAAEEAMKALHGEATNSMASDNQPEGMISESLDNLESMMPNKVRKIGELVRYLNTNPVGGLLEYARSHGFAAEFKLVDQSGPPHEPKFVYQAKVGGRWFPAVCAHSKKQGKQEAADAALRVLIGENEKAERMGFTEVTPVTGASLRRTMLLLSRSPEAQPKTLPLTGSTFHDQIAMLSHRCFNTLTNSFQPSLLGRKILAAIIMKKDSEDMGVVVSLGTGNRCVKGDSLSLKGETVNDCHAEIISRRGFIRFLYSELMKYNSQTAKDSIFEPAKGGEKLQIKKTVSFHLYISTAPCGDGALFDKSCSDRAMESTESRHYPVFENPKQGKLRTKVENGEGTIPVESSDIVPTWDGIRLGERLRTMSCSDKILRWNVLGLQGALLTHFLQPIYLKSVTLGYLFSQGHLTRAICCRVTRDGSAFEDGLRHPFIVNHPKVGRVSIYDSKRQSGKTKETSVNWCLADGYDLEILDGTRGTVDGPRNELSRVSKKNIFLLFKKLCSFRYRRDLLRLSYGEAKKAARDYETAKNYFKKGLKDMGYGNWISKPQEEKNFYLCPV [ADAR],-0.466,0.346,47.9 °C,49 °C,2.76,5.55
MEAVLTEELDEEEQLLRRHRKEKKELQAKIQGMKNAVPKNDKKRRKQLTEDVAKLEKEMEQKHREELEQLKLTTKENKIDSVAVNISNLVLENQPPRISKAQKRREKKAALEKEREERIAEAEIENLTGARHMESEKLAQILAARQLEIKQIPSDGHCMYKAIEDQLKEKDCALTVVALRSQTAEYMQSHVEDFLPFLTNPNTGDMYTPEEFQKYCEDIVNTAAWGGQLELRALSHILQTPIEIIQADSPPIIVGEEYSKKPLILVYMRHAYGLGEHYNSVTRLVNIVTENCS [OTUD6B],0.512,-0.0729,49.9 °C,50 °C,0.405,0.425
MAAPSGGVNCEEFAEFQELLKVMRTIDDRIVHELNTTVPTASFAGKIDASQTCKQLYESLMAAHASRDRVIKNCIAQTSAVVKNLREEREKNLDDLTLLKQLRKEQTKLKWMQSELNVEEVVNDRSWKVFNERCRIHFKPPKNE [CCDC58],0.6,0.251,53.3 °C,52.6 °C,-0.935,-0.43
MPEINTNHLDKQQVQLLAEMCILIDENDNKIGAETKKNCHLNENIEKGLLHRAFSVFLFNTENKLLLQQRSDAKITFPGCFTNTCCSHPLSNPAELEESDALGVRRAAQRRLKAELGIPLEEVPPEEINYLTRIHYKAQSDGIWGEHEIDYILLVRKNVTLNPDPNEIKSYCYVSKEELKELLKKAASGEIKITPWFKIIAATFLFKWWDNLNHLNQFVDHEKIYRM [IDI1],0.145,0.0595,54.1 °C,53.4 °C,0.472,-0.519
MAVPGDAARVRDKPVHSGVSQAPTAGRDCHHRADPASPRDSGCRGCWGDLVLQPLRSSRKLSSALCAGSLSFLLALLVRLVRGEVGCDLEQCKEAAAAEEEEAAPGAEGGVFPGPRGGAPGGGARLSPWLQPSALLFSLLCAFFWMGLYLLRAGVRLPLAVALLAACCGGEALVQIGLGVGEDHLLSLPAAGVVLSCLAAATWLVLRLRLGVLMIALTSAVRTVSLISLERFKVAWRPYLAYLAGVLGILLARYVEQILPQSAEAAPREHLGSQLIAGTKEDIPVFKRRRRSSSVVSAEMSGCSSKSHRRTSLPCIPREQLMGHSEWDHKRGPRGSQSSGTSITVDIAVMGEAHGLITDLLADPSLPPNVCTSLRAVSNLLSTQLTFQAIHKPRVNPVTSLSENYTCSDSEESSEKDKLAIPKRLRRSLPPGLLRRVSSTWTTTTSATGLPTLEPAPVRRDRSTSIKLQEAPSSSPDSWNNPVMMTLTKSRSFTSSYAISAANHVKAKKQSRPGALAKISPLSSPCSSPLQGTPASSLVSKISAVQFPESADTTAKQSLGSHRALTYTQSAPDLSPQILTPPVICSSCGRPYSQGNPADEPLERSGVATRTPSRTDDTAQVTSDYETNNNSDSSDIVQNEDETECLREPLRKASACSTYAPETMMFLDKPILAPEPLVMDNLDSIMEQLNTWNFPIFDLVENIGRKCGRILSQVSYRLFEDMGLFEAFKIPIREFMNYFHALEIGYRDIPYHNRIHATDVLHAVWYLTTQPIPGLSTVINDHGSTSDSDSDSGFTHGHMGYVFSKTYNVTDDKYGCLSGNIPALELMALYVAAAMHDYDHPGRTNAFLVATSAPQAVLYNDRSVLENHHAAAAWNLFMSRPEYNFLINLDHVEFKHFRFLVIEAILATDLKKHFDFVAKFNGKVNDDVGIDWTNENDRLLVCQMCIKLADINGPAKCKELHLQWTDGIVNEFYEQGDEEASLGLPISPFMDRSAPQLANLQESFISHIVGPLCNSYDSAGLMPGKWVEDSDESGDTDDPEEEEEEAPAPNEEETCENNESPKKKTFKRRKIYCQITQHLLQNHKMWKKVIEEEQRLAGIENQSLDQTPQSHSSEQIQAIKEEEEEKGKPRGEEIPTQKPDQ [PDE3A],0.0669,-0.179,51.8 °C,49.6 °C,-2.5,-4.37
RBBP6,-0.908,0.511,49 °C,49.9 °C,-2.06,3.66
MPSASCDTLLDDIEDIVSQEDSKPQDRHFVRKDVVPKVRRRNTQKYLQEEENSPPSDSTIPGIQKIWIRTWGCSHNNSDGEYMAGQLAAYGYKITENASDADLWLLNSCTVKNPAEDHFRNSIKKAQEENKKIVLAGCVPQAQPRQDYLKGLSIIGVQQIDRVVEVVEETIKGHSVRLLGQKKDNGRRLGGARLDLPKIRKNPLIEIISINTGCLNACTYCKTKHARGNLASYPIDELVDRAKQSFQEGVCEIWLTSEDTGAYGRDIGTNLPTLLWKLVEVIPEGAMLRLGMTNPPYILEHLEEMAKILNHPRVYAFLHIPVQSASDSVLMEMKREYCVADFKRVVDFLKEKVPGITIATDIICGFPGETDQDFQETVKLVEEYKFPSLFINQFYPRPGTPAAKMEQVPAQVKKQRTKDLSRVFHSYSPYDHKIGERQQVLVTEESFDSKFYVAHNQFYEQVLVPKNPAFMGKMVEVDIYESGKHFMKGQPVSDAKVYTPSISKPLAKGEVSGLTKDFRNGLGNQLSSGSHTSAASQCDSASSRMVLPMPRLHQDCALRMSVGLALLGLLFAFFVKVYN [CDKAL1],0.0175,-0.00551,51.2 °C,50.7 °C,-2.9,-1
VPS13A,-0.236,-0.144,53.6 °C,53.7 °C,-1.93,-1.94
MAQKPLRLLACGDVEGKFDILFNRVQAIQKKSGNFDLLLCVGNFFGSTQDAEWEEYKTGIKKAPIQTYVLGANNQETVKYFQDADGCELAENITYLGRKGIFTGSSGLQIVYLSGTESLNEPVPGYSFSPKDVSSLRMMLCTTSQFKGVDILLTSPWPKCVGNFGNSSGEVDTKKCGSALVSSLATGLKPRYHFAALEKTYYERLPYRNHIILQENAQHATRFIALANVGNPEKKKYLYAFSIVPMKLMDAAELVKQPPDVTENPYRKSGQEASIGKQILAPVEESACQFFFDLNEKQGRKRSSTGRDSKSSPHPKQPRKPPQPPGPCWFCLASPEVEKHLVVNIGTHCYLALAKGGLSDDHVLILPIGHYQSVVELSAEVVEEVEKYKATLRRFFKSRGKWCVVFERNYKSHHLQLQVIPVPISCSTTDDIKDAFITQAQEQQIELLEIPEHSDIKQIAQPGAAYFYVELDTGEKLFHRIKKNFPLQFGREVLASEAILNVPDKSDWRQCQISKEDEETLARRFRKDFEPYDFTLDD [CWF19L1],0.0176,-0.143,50.4 °C,50.7 °C,0.0624,0.97
